# According to the supplement of paper PMC10567573:
# B1: PRIM1 (parent)
# chain: CCSSADICPKCWTLMTMAIRIIDR
# Variants of: B1
# Test: protein stability index of a GFP-peptide fusion (GPS, HEK-293T) (PSI 1-6); higher = more stable
# Conditions: c terminus: a fixed tail appended
# 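Also: lentivirally expressed fusions sorted by FACS into six bins by GFP to DsRed ratio, PSI derived from sequencing read proportions per bin multiplied by bin number.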
row,Variant,protein stability index
1,CCSSADICPKCVTLMTMAIRIIDR [W12V],1.23
2,CCSSADICPKCYTLMTMAIRIIDR [W12Y],2.48
3,CCSSADICPKCWALMTMAIRIIDR [T13A],2.63
4,CCSSADICPKCWCLMTMAIRIIDR [T13C],2.04
5,CCSSADICPKCWDLMTMAIRIIDR [T13D],1.61
6,CCSSADICPKCWELMTMAIRIIDR [T13E],1.88
7,CCSSADICPKCWFLMTMAIRIIDR [T13F],1.53
8,CCSSADICPKCWGLMTMAIRIIDR [T13G],1.91
9,CCSSADICPKCWILMTMAIRIIDR [T13I],2.13
10,CCSSADICPKCWKLMTMAIRIIDR [T13K],2.46
11,CCSSADICPKCWLLMTMAIRIIDR [T13L],1.49
12,CCSSADICPKCWMLMTMAIRIIDR [T13M],1.59
13,CCSSADICPKCWNLMTMAIRIIDR [T13N],1.38
14,CCSSADICPKCWPLMTMAIRIIDR [T13P],1.3
15,CCSSADICPKCWQLMTMAIRIIDR [T13Q],2.18
16,CCSSADICPKCWSLMTMAIRIIDR [T13S],1.96
17,CCSSADICPKCWWLMTMAIRIIDR [T13W],2.31
18,CCSSADICPKCWYLMTMAIRIIDR [T13Y],2.19
19,CCSSADICPKCWTAMTMAIRIIDR [L14A],2.21
20,CCSSADICPKCWTCMTMAIRIIDR [L14C],1.8
21,CCSSADICPKCWTDMTMAIRIIDR [L14D],1.95
22,CCSSADICPKCWTEMTMAIRIIDR [L14E],2.06
23,CCSSADICPKCWTFMTMAIRIIDR [L14F],2.06
24,CCSSADICPKCWTGMTMAIRIIDR [L14G],1.27

row,Variant,protein stability index
1,CCSSADICPKCWTHMTMAIRIIDR [L14H],1.6
2,CCSSADICPKCWTIMTMAIRIIDR [L14I],1.75
3,CCSSADICPKCWTKMTMAIRIIDR [L14K],2
4,CCSSADICPKCWTMMTMAIRIIDR [L14M],1.55
5,CCSSADICPKCWTNMTMAIRIIDR [L14N],1.82
6,CCSSADICPKCWTPMTMAIRIIDR [L14P],2.27
7,CCSSADICPKCWTQMTMAIRIIDR [L14Q],1.9
8,CCSSADICPKCWTRMTMAIRIIDR [L14R],2.18
9,CCSSADICPKCWTSMTMAIRIIDR [L14S],2.39
10,CCSSADICPKCWTTMTMAIRIIDR [L14T],2.89
11,CCSSADICPKCWTVMTMAIRIIDR [L14V],1.8
12,CCSSADICPKCWTWMTMAIRIIDR [L14W],2.62
13,CCSSADICPKCWTYMTMAIRIIDR [L14Y],1.71
14,CCSSADICPKCWTLATMAIRIIDR [M15A],2.96
15,CCSSADICPKCWTLCTMAIRIIDR [M15C],1.77
16,CCSSADICPKCWTLDTMAIRIIDR [M15D],2.03
17,CCSSADICPKCWTLETMAIRIIDR [M15E],2.01
18,CCSSADICPKCWTLFTMAIRIIDR [M15F],1.47
19,CCSSADICPKCWTLGTMAIRIIDR [M15G],1.69
20,CCSSADICPKCWTLHTMAIRIIDR [M15H],2.25
21,CCSSADICPKCWTLITMAIRIIDR [M15I],2.87
22,CCSSADICPKCWTLKTMAIRIIDR [M15K],2.45
23,CCSSADICPKCWTLLTMAIRIIDR [M15L],1.59
24,CCSSADICPKCWTLNTMAIRIIDR [M15N],2.29

row,Variant,protein stability index
1,CCSSADICPKCWTLPTMAIRIIDR [M15P],2.13
2,CCSSADICPKCWTLQTMAIRIIDR [M15Q],1.95
3,CCSSADICPKCWTLRTMAIRIIDR [M15R],2.35
4,CCSSADICPKCWTLSTMAIRIIDR [M15S],1.95
5,CCSSADICPKCWTLTTMAIRIIDR [M15T],2.34
6,CCSSADICPKCWTLVTMAIRIIDR [M15V],2.96
7,CCSSADICPKCWTLWTMAIRIIDR [M15W],1.98
8,CCSSADICPKCWTLYTMAIRIIDR [M15Y],1.63
9,CCSSADICPKCWTLMAMAIRIIDR [T16A],2.23
10,CCSSADICPKCWTLMCMAIRIIDR [T16C],1.61
11,CCSSADICPKCWTLMDMAIRIIDR [T16D],2.07
12,CCSSADICPKCWTLMEMAIRIIDR [T16E],1.48
13,CCSSADICPKCWTLMFMAIRIIDR [T16F],2.12
14,CCSSADICPKCWTLMGMAIRIIDR [T16G],2.56
15,CCSSADICPKCWTLMHMAIRIIDR [T16H],2.04
16,CCSSADICPKCWTLMKMAIRIIDR [T16K],1.61
17,CCSSADICPKCWTLMLMAIRIIDR [T16L],2
18,CCSSADICPKCWTLMMMAIRIIDR [T16M],1.52
19,CCSSADICPKCWTLMNMAIRIIDR [T16N],2.37
20,CCSSADICPKCWTLMPMAIRIIDR [T16P],2.09
21,CCSSADICPKCWTLMQMAIRIIDR [T16Q],2.54
22,CCSSADICPKCWTLMRMAIRIIDR [T16R],1.95
23,CCSSADICPKCWTLMSMAIRIIDR [T16S],1.49
24,CCSSADICPKCWTLMVMAIRIIDR [T16V],1.87

row,Variant,protein stability index
1,CCSSADICPKCWTLMYMAIRIIDR [T16Y],2.08
2,CCSSADICPKCWTLMTAAIRIIDR [M17A],2.03
3,CCSSADICPKCWTLMTCAIRIIDR [M17C],1.15
4,CCSSADICPKCWTLMTDAIRIIDR [M17D],2.33
5,CCSSADICPKCWTLMTEAIRIIDR [M17E],2.5
6,CCSSADICPKCWTLMTFAIRIIDR [M17F],1.94
7,CCSSADICPKCWTLMTGAIRIIDR [M17G],1.96
8,CCSSADICPKCWTLMTHAIRIIDR [M17H],2.38
9,CCSSADICPKCWTLMTIAIRIIDR [M17I],1.94
10,CCSSADICPKCWTLMTKAIRIIDR [M17K],2.56
11,CCSSADICPKCWTLMTLAIRIIDR [M17L],1.74
12,CCSSADICPKCWTLMTNAIRIIDR [M17N],2.48
13,CCSSADICPKCWTLMTPAIRIIDR [M17P],2.29
14,CCSSADICPKCWTLMTQAIRIIDR [M17Q],2.54
15,CCSSADICPKCWTLMTRAIRIIDR [M17R],1.7
16,CCSSADICPKCWTLMTSAIRIIDR [M17S],2.95
17,CCSSADICPKCWTLMTTAIRIIDR [M17T],2.09
18,CCSSADICPKCWTLMTVAIRIIDR [M17V],1.6
19,CCSSADICPKCWTLMTWAIRIIDR [M17W],2.19
20,CCSSADICPKCWTLMTYAIRIIDR [M17Y],2.15
21,CCSSADICPKCWTLMTMCIRIIDR [A18C],2.45
22,CCSSADICPKCWTLMTMDIRIIDR [A18D],2.39
